Results from patent publication US20240190962A1 (IMMUNOWAKE, published 2024).
Changes are numbered by the printed parent chain. Names and notes keep the numbering of the source.

B1: PD-L1(mut2)-Fc (Fc fusion)
chain 1: FTVTVPKDLYVVEYGSNMTIECKFPVEKQLDLAALQVYWMMEDKNIIQFVHGEEDLKVQHSSYRQRARLLKDQLSLGNAALQITDVKLQDAGVYTCLIAYKGADYKRITVKVNAPYNKINQRILVVDPVTSEHELTCQAEGYPKAEVIWTSSDHQVLSGKTTTTNSKREEKLFNVTSTLRINTTTNEIFYCTFRRLDPEENHTAELVIPELPLAHPPNERGGGGSGGGDKTHTCPPCPAPEDEGGPSVFLFPPKPKDTLMISRTPEVTCVVVDVSHEDPEVKFNWYVDGVEVHNAKTKPREEQYNSTYRVVSVLTVLHQDWLNGKEYKCKVSNKALPAPIEKTISKAKGQPREPQVYVYPPSREEMTKNQVSLTCLVKGFYPSDIAVEWESNGQPENNYKTTPPVLDEDGSFALVSKLTVDKSRWQQGNVFSCSVMHEALHNHYTQKSLSLSPGK
chain 2: B1 chain 1 with D242K, E243K, Y359L, T374L, N398R, K400M, T402W, E408S, A413F, V415Y
B2: IL-2(L18R/Q22E/R38D/K43E/E61R/Q126T/S130R)/PD-L1(mut2)-Fc (Fc fusion)
chain 1: B1 chain 1
chain 2: FTVTVPKDLYVVEYGSNMTIECKFPVEKQLDLAALQVYWMMEDKNIIQFVHGEEDLKVQHSSYRQRARLLKDQLSLGNAALQITDVKLQDAGVYTCLIAYKGADYKRITVKVNAPYNKINQRILVVDPVTSEHELTCQAEGYPKAEVIWTSSDHQVLSGKTTTTNSKREEKLFNVTSTLRINTTTNEIFYCTFRRLDPEENHTAELVIPELPLAHPPNERGGGSGAPTSSSTKKTQLQLEHLRLDLEMILNGINNYKNPKLTDMLTFEFYMPKKATELKHLQCLERELKPLEEVLNLAQSKNFHLRPRDLISNINVIVLELKGSETTFMCEYADETATIVEFLNRWITFCTSIIRTLTGGGGSGGGDKTHTCPPCPAPEKKGGPSVFLFPPKPKDTLMISRTPEVTCVVVDVSHEDPEVKFNWYVDGVEVHNAKTKPREEQYNSTYRVVSVLTVLHQDWLNGKEYKCKVSNKALPAPIEKTISKAKGQPREPQVYVLPPSREEMTKNQVSLLCLVKGFYPSDIAVEWESNGQPENRYMTWPPVLDSDGSFFLYSKLTVDKSRWQQGNVFSCSVMHEALHNHYTQKSLSLSPGK
B3: IL-2(R38D/K43E/E61R/Q126T)/PD-L1(mut2)-Fc (Fc fusion)
chain 1: B1 chain 1
chain 2: B2 chain 2 with R243L, E247Q, R355S
B4: IL-2(L18R/Q22E/R38D/K43E/E61R/Q126T)/PD-L1(mut2)-Fc (Fc fusion)
chain 1: B1 chain 1
chain 2: B2 chain 2 with R355S
B5: IL-2(R38D/K43E/E61R)/PD-L1(mut2)-Fc (Fc fusion)
chain 1: B1 chain 1
chain 2: B2 chain 2 with R243L, E247Q, T351Q, R355S
B6: IL-2(L18R/Q22E/R38D/K43E/E61R)/PD-L1(mut2)-Fc (Fc fusion)
chain 1: B1 chain 1
chain 2: B2 chain 2 with T351Q, R355S
B7: IL-2(L18R/Q22E/R38D/K43E/E61R)/IL-12(E59A/F60A)/PD-L1(mut2)-Fc (Fc fusion)
chain 1: FTVTVPKDLYVVEYGSNMTIECKFPVEKQLDLAALQVYWMMEDKNIIQFVHGEEDLKVQHSSYRQRARLLKDQLSLGNAALQITDVKLQDAGVYTCLIAYKGADYKRITVKVNAPYNKINQRILVVDPVTSEHELTCQAEGYPKAEVIWTSSDHQVLSGKTTTTNSKREEKLFNVTSTLRINTTTNEIFYCTFRRLDPEENHTAELVIPELPLAHPPNERGGGGSGGGIWELKKDVYVVELDWYPDAPGEMVVLTCDTPEEDGITWTLDQSSEVLGSGKTLTIQVKAAGDAGQYTCHKGGEVLSHSLLLLHKKEDGIWSTDILKDQKEPKNKTFLRCEAKNYSGRFTCWWLTTISTDLTFSVKSSRGSSDPQGVTCGAATLSAERVRGDNKEYEYSVECQEDSACPAAEESLPIEVMVDAVHKLKYENYTSSFFIRDIIKPDPPKNLQLKPLKNSRQVEVSWEYPDTWSTPHSYFSLTFCVQVQGKSKREKKDRVFTDKTSATVICRKNASISVRAQDRYYSSSWSEWASVPCSGGGGSGGGSGGGGSRNLPVATPDPGMFPCLHHSQNLLRAVSNMLQKARQTLEFYPCTSEEIDHEDITKDKTSTVEACLPLELTKNESCLNSRETSFITNGSCLASRKTSFMMALCLSSIYEDLKMYQVEFKTMNAKLLMDPKRQIFLDQNMLAVIDELMQALNFNSETVPQKSSLEEPDFYKTKIKLCILLHAFRIRAVTIDRVMSYLNASGGGGSGGGDKTHTCPPCPAPEDEGGPSVFLFPPKPKDTLMISRTPEVTCVVVDVSHEDPEVKFNWYVDGVEVHNAKTKPREEQYNSTYRVVSVLTVLHQDWLNGKEYKCKVSNKALPAPIEKTISKAKGQPREPQVYVYPPSREEMTKNQVSLTCLVKGFYPSDIAVEWESNGQPENNYKTTPPVLDEDGSFALVSKLTVDKSRWQQGNVFSCSVMHEALHNHYTQKSLSLSPGK
chain 2: B2 chain 2 with T351Q, R355S
B8: IL-2(R38D/K43E/E61R/Q126T)/IL-12(E59A/F60A)/PD-L1(mut2)-Fc (Fc fusion)
chain 1: B7 chain 1
chain 2: B2 chain 2 with R243L, E247Q, R355S
B9: IL-12(E59A/F60A)/PD-L1(mut2)-Fc (Fc fusion)
chain 1: B7 chain 1
chain 2: B1 chain 1 with D242K, E243K, Y359L, T374L, N398R, K400M, T402W, E408S, A413F, V415Y

What follows are binders tested against T1, human IL-2 receptor (IL-2Rα, IL-2Rβ, IL-2Rγ) (human, UniProt P01589 22-272; P14784 27-551; P31785 23-369) (assay: cell-based or functional assay).
T1 sequence (looked up) 1: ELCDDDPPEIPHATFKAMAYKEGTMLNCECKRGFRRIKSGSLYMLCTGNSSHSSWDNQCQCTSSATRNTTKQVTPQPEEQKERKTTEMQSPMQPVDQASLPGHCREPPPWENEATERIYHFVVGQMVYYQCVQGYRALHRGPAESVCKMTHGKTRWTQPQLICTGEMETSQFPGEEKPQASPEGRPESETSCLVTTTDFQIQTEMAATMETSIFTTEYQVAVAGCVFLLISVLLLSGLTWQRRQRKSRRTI
T1 sequence (looked up) 2: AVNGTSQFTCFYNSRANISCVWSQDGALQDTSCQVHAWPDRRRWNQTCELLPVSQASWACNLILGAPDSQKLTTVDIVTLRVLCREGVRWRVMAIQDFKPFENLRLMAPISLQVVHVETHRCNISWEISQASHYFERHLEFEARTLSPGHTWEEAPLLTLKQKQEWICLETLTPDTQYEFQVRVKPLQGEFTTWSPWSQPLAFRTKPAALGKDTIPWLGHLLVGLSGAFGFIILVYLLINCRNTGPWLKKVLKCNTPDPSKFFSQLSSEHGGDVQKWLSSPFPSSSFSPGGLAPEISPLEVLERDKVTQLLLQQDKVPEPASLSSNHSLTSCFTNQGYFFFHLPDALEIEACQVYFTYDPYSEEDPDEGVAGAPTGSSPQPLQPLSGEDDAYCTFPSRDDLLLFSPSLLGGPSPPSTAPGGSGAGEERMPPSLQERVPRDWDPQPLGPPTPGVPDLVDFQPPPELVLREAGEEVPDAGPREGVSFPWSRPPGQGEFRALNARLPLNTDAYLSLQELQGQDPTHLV
T1 sequence (looked up) 3: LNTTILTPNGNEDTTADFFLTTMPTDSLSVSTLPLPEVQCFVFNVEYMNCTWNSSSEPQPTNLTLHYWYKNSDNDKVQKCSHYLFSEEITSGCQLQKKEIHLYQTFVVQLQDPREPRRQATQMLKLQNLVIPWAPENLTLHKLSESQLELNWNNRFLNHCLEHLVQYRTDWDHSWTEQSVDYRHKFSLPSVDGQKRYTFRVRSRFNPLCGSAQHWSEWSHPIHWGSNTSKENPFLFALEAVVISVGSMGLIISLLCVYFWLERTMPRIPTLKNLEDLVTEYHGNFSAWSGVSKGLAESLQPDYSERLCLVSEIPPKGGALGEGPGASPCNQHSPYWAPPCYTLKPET
With B1 the “IL-2 biological activity, HEK-IL-2” value was under 0.1% and the “IL-2 biological activity, HEK-IL-2-PD-1” value was under 0.1%.
For B2, the “IL-2 biological activity, HEK-IL-2” value was under 0.1% and the “IL-2 biological activity, HEK-IL-2-PD-1” value was under 0.1%.
In the case of B3, the “IL-2 biological activity, HEK-IL-2” value is reported as 2% and the “IL-2 biological activity, HEK-IL-2-PD-1” value is reported as 20%.
With B4 the “IL-2 biological activity, HEK-IL-2” value was under 0.1% and the “IL-2 biological activity, HEK-IL-2-PD-1” value was 5%.
In the case of B5, the “IL-2 biological activity, HEK-IL-2” value is reported as 16% and the “IL-2 biological activity, HEK-IL-2-PD-1” value is reported as 76%.
For B6, the “IL-2 biological activity, HEK-IL-2” value was 4% and the “IL-2 biological activity, HEK-IL-2-PD-1” value was 35%.

Molecular target: T1, human IL-2 receptor (IL-2Rα, IL-2Rβ, …)
Experiment: cell-based or functional assay
Remark: another data set of the same source
In the case of B7, the “IL-2 biological activity, HEK-IL-2” value is reported as 4% and the “IL-2 biological activity, HEK-IL-2-PD-1” value is reported as 35%.
In the case of B8, the “IL-2 biological activity, HEK-IL-2” value is reported as 2% and the “IL-2 biological activity, HEK-IL-2-PD-1” value is reported as 20%.
In the case of B9, the “IL-2 biological activity, HEK-IL-2” value is reported as under 0.1% and the “IL-2 biological activity, HEK-IL-2-PD-1” value is reported as under 0.1%.

Each binder was assayed against human IL-12 receptor complex (IL-12Rβ1, IL-12Rβ2) (human, UniProt P42701 24-662; Q99665 24-862) (assay: cell-based or functional assay).
Sequence of human IL-12 receptor complex (IL-12Rβ1, IL-12Rβ2) (Q99665 24-862, chain 2 of 2, other chains not shown): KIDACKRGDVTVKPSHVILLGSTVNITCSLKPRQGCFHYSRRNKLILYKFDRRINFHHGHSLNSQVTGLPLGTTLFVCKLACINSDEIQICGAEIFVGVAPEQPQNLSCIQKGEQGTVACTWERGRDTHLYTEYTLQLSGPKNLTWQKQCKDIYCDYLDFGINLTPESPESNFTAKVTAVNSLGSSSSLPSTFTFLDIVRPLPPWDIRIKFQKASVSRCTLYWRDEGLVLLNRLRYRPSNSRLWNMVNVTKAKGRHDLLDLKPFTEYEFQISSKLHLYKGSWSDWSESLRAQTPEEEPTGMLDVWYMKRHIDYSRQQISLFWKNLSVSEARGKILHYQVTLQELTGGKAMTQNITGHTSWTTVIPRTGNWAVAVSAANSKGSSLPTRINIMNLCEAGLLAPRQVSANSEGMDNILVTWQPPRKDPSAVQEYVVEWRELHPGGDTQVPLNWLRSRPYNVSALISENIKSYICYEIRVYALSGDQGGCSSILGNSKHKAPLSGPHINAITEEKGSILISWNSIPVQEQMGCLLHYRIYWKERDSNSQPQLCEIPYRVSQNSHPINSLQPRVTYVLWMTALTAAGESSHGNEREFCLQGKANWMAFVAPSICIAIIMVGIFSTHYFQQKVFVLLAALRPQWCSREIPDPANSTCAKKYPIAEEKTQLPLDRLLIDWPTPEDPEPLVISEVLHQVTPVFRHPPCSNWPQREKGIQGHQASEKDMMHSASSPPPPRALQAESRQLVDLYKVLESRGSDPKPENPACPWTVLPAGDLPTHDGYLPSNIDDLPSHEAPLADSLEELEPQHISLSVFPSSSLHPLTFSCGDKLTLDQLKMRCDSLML
For B7, the “IL-12 biological activity, HEK-IL-12” value was under 0.2% and the “IL-12 biological activity, HEK-IL-12-PD-1” value was 19%.
B8 was tested, and the “IL-12 biological activity, HEK-IL-12” value was under 0.2% and the “IL-12 biological activity, HEK-IL-12-PD-1” value was 25%.
With B9 the “IL-12 biological activity, HEK-IL-12” value was under 0.2% and the “IL-12 biological activity, HEK-IL-12-PD-1” value was 24%.
